Measurements taken from patent publication US20100120063A1, “GPCR Arrestin Assays” (DISCOVERX CORPORATION, priority 2008, published 2010).
Read-outs that look alike come from different tables or passages of the source.

How the values were obtained:
Test in all cases: cell-based or functional assay
[1] = molecular target: OPRM1-PK (opiod receptor mu-1 fused to PK) (E. coli) (UniProt P35372); set-up: EC50, arrestin-EA recruitment to OPRM1-PK (EFC) (M (unit not given)): unit not given beside the values
[2] = molecular target: OPRD1-PK fusion protein; set-up: EC50, arrestin-EA recruitment to OPRD1-PK (EFC) (M (unit not given)): unit not given beside the values
[3] = molecular target: PROKR2, not fused (UniProt Q8NFJ6); set-up: EC50, arrestin-EA recruitment to OPRM1-PK (EFC), cells headed 'OPRM1 + PRC' (M (unit not given)): unit not given beside the values
[4] = molecular target: CRTH2-PK2 (G Protein-coupled receptor 44 fused to PK2) (E. coli) (UniProt Q9Y5Y4); set-up: EC50 of prostaglandin for arrestin-EA recruitment, EFC (M (unit not given)): unit not given beside the values
[5] = molecular target: CHRM2-PK2 (cholinergic receptor, muscarinic 2, fused to PK2) (E. coli) (UniProt P08172); set-up: EC50 of oxotremorine for arrestin-EA recruitment, EFC (M (unit not given)): unit not given beside the values
[6] = molecular target: OPRM1-PK (opiod receptor mu-1 fused to PK) (E. coli) (UniProt P35372); set-up: EC50, arrestin-EA recruitment to OPRM1-PK (EFC), cells headed 'OPRM1 + PRC' (M (unit not given)): unit not given beside the values
[7] = molecular target: CCR4-PK1 (chemokine receptor 4 fused to PK1) (E. coli) (UniProt P51679)
[8] = molecular target: CCR4-PK2 (chemokine receptor 4 fused to PK2) (E. coli) (UniProt P51679)
[9] = molecular target: CHRM2-PK1 (cholinergic receptor, muscarinic 2, fused to PK1) (E. coli) (UniProt P08172)
[10] = molecular target: CHRM2-PK2 (cholinergic receptor, muscarinic 2, fused to PK2) (E. coli) (UniProt P08172)
[11] = molecular target: CHRM3 with the EGS linker and PK (UniProt P20309)
[12] = molecular target: CRHR2-PK1 (corticotropin releasing hormone receptor 2 fused to PK1) (E. coli) (UniProt Q13324)
[13] = molecular target: CRHR2-PK2 (corticotropin releasing hormone receptor 2 fused to PK2) (E. coli) (UniProt Q13324)
[14] = molecular target: CRTH2-PK1 (G Protein-coupled receptor 44 fused to PK1) (E. coli) (UniProt Q9Y5Y4)
[15] = molecular target: CRTH2-PK2 (G Protein-coupled receptor 44 fused to PK2) (E. coli) (UniProt Q9Y5Y4)
[16] = molecular target: HRH3 with the EGS linker and PK (UniProt Q9Y5N1)
[17] = molecular target: MC3R-PK1 (melanocortin 3 receptor fused to PK1) (E. coli) (UniProt P41968)
[18] = molecular target: MC3R-PK2 (melanocortin 3 receptor fused to PK2) (E. coli) (UniProt P41968)
[19] = molecular target: OPRD1-PK fusion protein
[20] = molecular target: OPRM1-PK (opiod receptor mu-1 fused to PK) (E. coli) (UniProt P35372)
[21] = molecular target: OPRM1-PK2 (opiod receptor mu-1 fused to PK2) (E. coli) (UniProt P35372)
[22] = molecular target: SSTR1-PK2 (somatostatin receptor 1 fused to PK2) (E. coli) (UniProt P30872)
[23] = molecular target: SSTR4 with the EGS linker and PK (UniProt P31391)
[24] = molecular target: SSTR4-PK without the EGS linker (UniProt P31391)
[25] = molecular target: CHRM2-PK2 (cholinergic receptor, muscarinic 2, fused to PK2) (E. coli) (UniProt P08172); remark: listed apart in the source
[26] = molecular target: SSTR1-PK2 (somatostatin receptor 1 fused to PK2) (E. coli) (UniProt P30872); remark: listed apart in the source
[27] = molecular target: OPRD1 (opiod receptor delta 1), not fused (UniProt P41143)

HRH3 with the EGS linker and PK, sequence (Q9Y5N1 other isoform, or with tags, fused parts or gaps): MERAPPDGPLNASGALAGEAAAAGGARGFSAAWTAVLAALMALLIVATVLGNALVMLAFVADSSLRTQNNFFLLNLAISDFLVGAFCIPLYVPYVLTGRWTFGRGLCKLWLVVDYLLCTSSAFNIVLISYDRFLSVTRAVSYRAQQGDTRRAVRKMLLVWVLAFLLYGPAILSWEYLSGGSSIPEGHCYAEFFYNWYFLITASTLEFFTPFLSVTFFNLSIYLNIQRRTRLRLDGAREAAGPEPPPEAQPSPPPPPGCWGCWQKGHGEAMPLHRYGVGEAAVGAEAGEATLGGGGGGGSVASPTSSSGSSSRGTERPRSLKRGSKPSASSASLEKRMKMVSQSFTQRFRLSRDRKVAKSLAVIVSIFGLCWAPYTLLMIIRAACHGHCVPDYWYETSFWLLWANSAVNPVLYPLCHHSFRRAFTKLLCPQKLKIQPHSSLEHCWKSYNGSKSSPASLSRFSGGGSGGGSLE
SSTR4 with the EGS linker and PK, sequence (P31391 other isoform, or with tags, fused parts or gaps): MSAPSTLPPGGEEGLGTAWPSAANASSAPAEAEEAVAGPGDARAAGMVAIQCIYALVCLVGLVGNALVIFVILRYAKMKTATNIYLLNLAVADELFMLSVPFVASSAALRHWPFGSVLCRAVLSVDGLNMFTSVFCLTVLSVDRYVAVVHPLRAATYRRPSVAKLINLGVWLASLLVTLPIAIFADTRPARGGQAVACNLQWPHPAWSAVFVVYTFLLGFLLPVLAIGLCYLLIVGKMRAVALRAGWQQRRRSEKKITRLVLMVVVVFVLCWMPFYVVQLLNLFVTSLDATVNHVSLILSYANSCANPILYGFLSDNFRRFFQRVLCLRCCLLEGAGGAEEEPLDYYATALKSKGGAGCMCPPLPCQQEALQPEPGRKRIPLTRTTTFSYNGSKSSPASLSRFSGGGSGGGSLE
PROKR2, not fused, sequence (Q8NFJ6 whole entry, the tested form may be a part): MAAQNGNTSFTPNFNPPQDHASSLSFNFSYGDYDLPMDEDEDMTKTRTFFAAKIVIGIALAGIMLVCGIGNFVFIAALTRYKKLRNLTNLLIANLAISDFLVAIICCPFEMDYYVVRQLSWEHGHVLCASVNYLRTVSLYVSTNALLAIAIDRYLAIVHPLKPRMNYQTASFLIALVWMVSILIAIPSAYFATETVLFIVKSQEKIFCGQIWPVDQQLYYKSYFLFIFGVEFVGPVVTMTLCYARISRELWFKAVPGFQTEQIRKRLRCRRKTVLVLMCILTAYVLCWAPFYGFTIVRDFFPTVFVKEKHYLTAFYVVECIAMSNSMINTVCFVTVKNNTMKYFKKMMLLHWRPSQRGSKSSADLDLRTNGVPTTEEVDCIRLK
SSTR4-PK without the EGS linker, sequence (P31391 other isoform, or with tags, fused parts or gaps): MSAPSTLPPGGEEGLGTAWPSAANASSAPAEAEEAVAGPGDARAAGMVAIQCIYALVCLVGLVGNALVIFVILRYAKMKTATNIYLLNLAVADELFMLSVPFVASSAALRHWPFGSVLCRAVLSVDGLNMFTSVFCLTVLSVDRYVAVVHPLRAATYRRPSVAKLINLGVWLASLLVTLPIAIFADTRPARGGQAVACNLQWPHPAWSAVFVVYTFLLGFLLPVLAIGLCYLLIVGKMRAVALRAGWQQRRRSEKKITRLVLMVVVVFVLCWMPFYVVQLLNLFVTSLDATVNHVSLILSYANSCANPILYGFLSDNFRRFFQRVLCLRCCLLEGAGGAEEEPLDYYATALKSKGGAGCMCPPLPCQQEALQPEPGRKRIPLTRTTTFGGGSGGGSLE

Substance: DADLE (peptide)
- LOGEC50, arrestin-EA recruitment to OPRM1-PK (EFC) (log M (unit not given)) [1]: -6.95

Substance: DADLE (peptide; in M (unit assumed))
- EC50, arrestin-EA recruitment to OPRM1-PK (EFC) (M (unit not given)) [1]: 1.11e-07

Substance: DAMAGO, [D-Ala2,N-Me-Phe4,Gly5-ol]-enkephalin (peptide)
- EC50, arrestin-EA recruitment to OPRD1-PK (EFC) (M (unit not given)) [2]: 3.64e-05
- LOGEC50, arrestin-EA recruitment to OPRD1-PK (EFC) (log M (unit not given)) [2]: -4.44

Substance: EG-VEGF (from UniProt P58294 20-105) (ligand)
- EC50, arrestin-EA recruitment to OPRM1-PK (EFC), cells headed 'OPRM1 + PRC' (M (unit not given)) [3]: 3.21e-08
- LOGEC50, arrestin-EA recruitment to OPRM1-PK (EFC), cells headed 'OPRM1 + PRC' (log M (unit not given)) [3]: -7.49

Substance: arrestin-EA fusion protein (beta arrestin fused at its C terminus to the EA fragment of β-galactosidase) (from UniProt P49407 1-418; P00722 48-1024)
- BOTTOM of the agonist dose-response fit, EFC chemiluminescence [4]: 29200
- LOGEC50 of prostaglandin for arrestin-EA recruitment, EFC (log M (unit not given)) [4]: -6.76
- TOP of the agonist dose-response fit, EFC chemiluminescence [4]: 76000
- BOTTOM of the agonist dose-response fit, EFC chemiluminescence [5]: 336
- EC50 of oxotremorine for arrestin-EA recruitment, EFC (M (unit not given)) [5]: 6.29e-05
- LOGEC50 of oxotremorine for arrestin-EA recruitment, EFC (log M (unit not given)) [5]: -5.2
- TOP of the agonist dose-response fit, EFC chemiluminescence [5]: 2040
- BOTTOM of the DADLE dose-response fit, EFC chemiluminescence, U2OS cells with OPRM1-PK [1]: 626
- S:B with DADLE, EFC chemiluminescence, U2OS cells with OPRM1-PK [1]: 32.7
- S:B with deltorphin, EFC chemiluminescence, U2OS cells with OPRM1-PK only [1]: 2.5
- TOP of the DADLE dose-response fit, EFC chemiluminescence, U2OS cells with OPRM1-PK [1]: 17100
- BOTTOM of the OPRM1-agonist dose-response fit, EFC chemiluminescence, CHO cells with OPRD1-PK [2]: 520
- TOP of the OPRM1-agonist dose-response fit, EFC chemiluminescence, CHO cells with OPRD1-PK [2]: 2810
- BOTTOM of the EG-VEGF dose-response fit, EFC chemiluminescence, cells headed 'OPRM1 + PRC' [6]: 25.8
- TOP of the EG-VEGF dose-response fit, EFC chemiluminescence, cells headed 'OPRM1 + PRC' [6]: 57.3
- S:B, EFC chemiluminescence [7]: 19
- S:B, EFC chemiluminescence [8]: 3
- S:B, EFC chemiluminescence [9]: 1.6
- S:B, EFC chemiluminescence [10]: 6.1
- BOTTOM of the agonist dose-response fit, EFC chemiluminescence [11]: 546
- EC50 of the agonist (not named) for arrestin-EA recruitment, EFC [11]: 0.0822 µM
- LOGEC50 of the agonist (not named) for arrestin-EA recruitment, EFC (log M (unit not given)) [11]: -7.08
- TOP of the agonist dose-response fit, EFC chemiluminescence [11]: 1550
- S:B, EFC chemiluminescence [12]: 13
- S:B, EFC chemiluminescence [13]: 17
- S:B, EFC chemiluminescence [14]: 1
- S:B, EFC chemiluminescence [15]: 2.6
- BOTTOM of the agonist dose-response fit, EFC chemiluminescence [16]: 273
- EC50 of the agonist (not named) for arrestin-EA recruitment, EFC [16]: 0.0552 µM
- LOGEC50 of the agonist (not named) for arrestin-EA recruitment, EFC (log M (unit not given)) [16]: -7.26
- TOP of the agonist dose-response fit, EFC chemiluminescence [16]: 935
- S:B, EFC chemiluminescence [17]: 1
- S:B, EFC chemiluminescence [18]: 3.2
- BOTTOM of the OPRM1-agonist dose-response fit, EFC chemiluminescence, CHO cells with OPRD1-PK and OPRM1 [19]: 20.3
- S:B, EFC chemiluminescence, CHO cells with OPRD1-PK and OPRM1 [19]: 31.9
- TOP of the OPRM1-agonist dose-response fit, EFC chemiluminescence, CHO cells with OPRD1-PK and OPRM1 [19]: 201
- BOTTOM of the OPRM1-agonist dose-response fit, EFC chemiluminescence, U2OS cells with OPRM1-PK [20]: 1010
- S:B with deltorphin, EFC chemiluminescence, U2OS cells with OPRM1-PK and OPRD1 [20]: 7.4
- S:B, EFC chemiluminescence [20]: 26
- TOP of the OPRM1-agonist dose-response fit, EFC chemiluminescence, U2OS cells with OPRM1-PK [20]: 10900
- S:B, EFC chemiluminescence [21]: 8
- BOTTOM of the agonist dose-response fit, EFC chemiluminescence [22]: 4800
- EC50 of the agonist (not named) for arrestin-EA recruitment, EFC [22]: 0.00815 µM
- LOGEC50 of the agonist (not named) for arrestin-EA recruitment, EFC (log M (unit not given)) [22]: -8.09
- TOP of the agonist dose-response fit, EFC chemiluminescence [22]: 10500
- BOTTOM of the agonist dose-response fit, EFC chemiluminescence [23]: 1380
- EC50 of the agonist (not named) for arrestin-EA recruitment, EFC [23]: 0.000732 µM
- LOGEC50 of the agonist (not named) for arrestin-EA recruitment, EFC (log M (unit not given)) [23]: -9.14
- TOP of the agonist dose-response fit, EFC chemiluminescence [23]: 3420
- response in the EFC arrestin assay, CHO cells [24]: 1.5 fold
- EC50 of oxotremorine for arrestin-EA recruitment, EFC [25]: 6.29 µM
- BOTTOM of the agonist dose-response fit, EFC chemiluminescence [26]: 4790
- Log EC50 of the agonist (not named) for arrestin-EA recruitment, EFC (log M (unit not given)) [26]: -8.07

Substance: arrestin-EA fusion protein (beta arrestin fused at its C terminus to the EA fragment of β-galactosidase) (from UniProt P49407 1-418; P00722 48-1024) (other; in M (unit assumed))
- EC50 of prostaglandin for arrestin-EA recruitment, EFC (M (unit not given)) [4]: 1.74e-07

Substance: deltorphin (peptide)
- EC50, arrestin-EA recruitment to OPRM1-PK (EFC) (M (unit not given)) [1]: 0.0007
- LOGEC50, arrestin-EA recruitment to OPRM1-PK (EFC) (log M (unit not given)) [1]: -3.12
- EC50, arrestin-EA recruitment to co-expressed OPRM1-PK (EFC, transactivation) [27]: 0.00838 µM
- LOGEC50, arrestin-EA recruitment to co-expressed OPRM1-PK (EFC, transactivation) (log M (unit not given)) [27]: -8.08
